Measurements reported in patent publication US20130260455A1 (ONCOMED PHARMACEUTICALS, published 2013).

T1: hN2 12-12 (human Notch2 amino acids 454-493 fused to hFc) (human, UniProt Q04721 454-493)
T1 construct: not shown: constant region of human IgG (hFc)
T1 chain: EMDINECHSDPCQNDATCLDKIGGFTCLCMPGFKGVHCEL

T2: hN2 11-12 (human Notch2 amino acids 413-493 fused to hFc) (human, UniProt Q04721 413-493)
T2 construct: not shown: constant region of human IgG (hFc)
T2 sequence: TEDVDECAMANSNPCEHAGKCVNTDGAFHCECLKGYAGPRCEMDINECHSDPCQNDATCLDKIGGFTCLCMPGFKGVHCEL

T3: hN2 1-9 (human Notch2 amino acids 1-378 fused to hFc) (human, UniProt Q04721 26-378)
T3 construct: not shown: constant region of human IgG (hFc)
T3 sequence: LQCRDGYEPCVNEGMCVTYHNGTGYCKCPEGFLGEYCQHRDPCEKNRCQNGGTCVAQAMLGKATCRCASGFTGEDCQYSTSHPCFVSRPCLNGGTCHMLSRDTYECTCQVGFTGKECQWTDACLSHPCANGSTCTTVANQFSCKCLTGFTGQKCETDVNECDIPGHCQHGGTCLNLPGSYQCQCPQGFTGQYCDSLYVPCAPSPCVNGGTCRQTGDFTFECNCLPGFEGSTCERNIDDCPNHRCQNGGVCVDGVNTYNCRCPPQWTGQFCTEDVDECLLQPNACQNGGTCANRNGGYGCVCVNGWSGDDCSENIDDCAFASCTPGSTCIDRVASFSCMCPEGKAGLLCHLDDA

T4: hN2 1-7 (human Notch2 amino acids 1-301 fused to hFc) (human, UniProt Q04721 26-301)
T4 construct: not shown: constant region of human IgG (hFc)
T4 sequence: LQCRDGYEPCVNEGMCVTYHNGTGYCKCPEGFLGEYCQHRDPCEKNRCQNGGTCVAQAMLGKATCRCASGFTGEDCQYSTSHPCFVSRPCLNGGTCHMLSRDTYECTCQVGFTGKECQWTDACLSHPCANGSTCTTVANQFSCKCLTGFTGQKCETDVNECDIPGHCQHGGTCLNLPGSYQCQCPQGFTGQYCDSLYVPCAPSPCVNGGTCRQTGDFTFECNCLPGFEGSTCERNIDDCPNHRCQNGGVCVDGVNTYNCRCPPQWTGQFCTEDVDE

T5: hN2 1-8 (human Notch2 amino acids 1-341 fused to hFc) (human, UniProt Q04721 26-341)
T5 construct: not shown: constant region of human IgG (hFc)
T5 sequence: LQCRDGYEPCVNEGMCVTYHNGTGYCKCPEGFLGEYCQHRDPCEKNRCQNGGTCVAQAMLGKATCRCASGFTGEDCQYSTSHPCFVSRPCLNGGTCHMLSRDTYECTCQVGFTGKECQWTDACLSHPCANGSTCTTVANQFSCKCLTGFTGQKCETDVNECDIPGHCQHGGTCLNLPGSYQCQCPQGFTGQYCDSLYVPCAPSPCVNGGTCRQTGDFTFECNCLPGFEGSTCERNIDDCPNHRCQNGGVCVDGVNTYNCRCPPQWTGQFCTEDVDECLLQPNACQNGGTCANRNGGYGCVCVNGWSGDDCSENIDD

T6: hN2 1-6 (human Notch2 amino acids 1-263 fused to hFc) (human, UniProt Q04721 26-263)
T6 construct: not shown: constant region of human IgG (hFc)
T6 sequence: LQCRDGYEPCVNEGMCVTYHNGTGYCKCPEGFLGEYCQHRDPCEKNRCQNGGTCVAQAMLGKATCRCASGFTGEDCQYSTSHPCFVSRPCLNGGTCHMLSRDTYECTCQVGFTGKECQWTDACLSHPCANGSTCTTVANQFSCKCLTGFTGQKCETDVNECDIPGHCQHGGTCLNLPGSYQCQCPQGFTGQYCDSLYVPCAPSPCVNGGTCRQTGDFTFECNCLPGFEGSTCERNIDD

T7: human Notch2 as used in the Biacore analysis of Table 6 (construct not stated) (human, UniProt Q04721 375-605, limits assumed)
T7 construct: also called h-Notch2
T7 sequence: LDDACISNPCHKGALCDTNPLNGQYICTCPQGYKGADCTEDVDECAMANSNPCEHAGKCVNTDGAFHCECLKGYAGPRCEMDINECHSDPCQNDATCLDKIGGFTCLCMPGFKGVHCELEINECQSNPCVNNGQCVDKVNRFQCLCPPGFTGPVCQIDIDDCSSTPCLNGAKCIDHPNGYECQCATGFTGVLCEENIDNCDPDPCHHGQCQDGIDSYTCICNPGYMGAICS

T8: recombinant human Notch3 (EGF9-14) (human, UniProt Q9UM47 351-580)
T8 construct: The whole entry for hNotch3 is named here; also called hNotch3; h-Notch3
T8 sequence: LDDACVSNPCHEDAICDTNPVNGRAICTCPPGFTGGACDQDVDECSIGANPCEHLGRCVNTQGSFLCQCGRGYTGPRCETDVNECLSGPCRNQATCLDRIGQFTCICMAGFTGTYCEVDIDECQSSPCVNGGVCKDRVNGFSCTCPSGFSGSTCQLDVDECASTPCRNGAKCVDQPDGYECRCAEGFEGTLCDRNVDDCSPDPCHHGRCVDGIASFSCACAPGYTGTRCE

T9: recombinant mouse Notch2 (EGF10-15) (mouse, UniProt O35516 375-605)
T9 construct: domain: EGF10-15; also called mNotch2; m-Notch2
T9 sequence (looked up): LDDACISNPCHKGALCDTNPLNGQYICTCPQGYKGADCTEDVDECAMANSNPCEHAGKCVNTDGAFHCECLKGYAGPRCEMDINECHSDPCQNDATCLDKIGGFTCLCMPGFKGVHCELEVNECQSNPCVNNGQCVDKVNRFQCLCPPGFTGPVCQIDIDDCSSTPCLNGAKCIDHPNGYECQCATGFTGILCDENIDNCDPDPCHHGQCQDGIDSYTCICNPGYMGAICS

T10: recombinant mouse Notch3 (EGF9-14) (mouse, UniProt Q61982 352-581)
T10 construct: domain: EGF9-14; also called mNotch3; m-Notch3
T10 sequence (looked up): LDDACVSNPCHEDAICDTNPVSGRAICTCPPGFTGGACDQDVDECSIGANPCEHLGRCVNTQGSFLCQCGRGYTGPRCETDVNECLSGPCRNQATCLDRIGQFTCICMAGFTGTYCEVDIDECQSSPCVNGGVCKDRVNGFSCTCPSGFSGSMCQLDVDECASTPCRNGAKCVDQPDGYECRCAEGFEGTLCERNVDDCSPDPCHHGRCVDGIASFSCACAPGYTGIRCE


Assays:
[1] = target: T1, hN2 12-12 (human Notch2 amino acids …); assay: capture ELISA: hN2-hFc from HEK-293 supernatant on anti-human Fc plates, 59R1 Fab, HRP anti-human Fab [lower graph]
Experimental: (§1) The binding of anti-Notch2/3 antibodies to supernatant from HEK 293 cells transfected with sequences encoding recombinant human Notch2 Fc fusion proteins comprising the full length human Notch2 protein or various human Notch2 deletion constructs containing various deletions of EGF repeats one to twelve were tested by ELISA. HEK-293 cells were transiently transfected with pcDNA 3.1 (Invitrogen) with hNotch2 cDNA's encoding for the indicated amino acids fused to the constant region of human IgG (hFc). Supernatants were harvested 48 hours later. To capture hN2-hfc proteins, 96 well plates were first coated with goat anti-human Fec gamma specific IgG (Jackson Immunochemicals, #109-006-098) at 100 ng per well in sodium bicarbonate buffer overnight at 4°. Plates were washed and blocked in 5% bovine serum/PBS-Tween-20. Supernatants were added to plates and incubated at room temperature for 1 hour. Plates were washed in PBS-T. 59R1 Fab was added at 10 μg/ml in 5% serum/PBS-T and incubated at room temperature for 1 hour. Plates were washed in PBS-T. Fab binding was detected by goat anti-human Fab specific antibody conjugated to horseradish peroxidase (Thermo. #31414) diluted 1:5000 in 5% serum/PBS-T for 1 hour at room temperature. Plates were washed and developed with 1 Step Ultra TMB (Thermo. #34028). Plates were read on a Perkin Elmer Victor 1420 plate reader. […] (FIG. 3A).

[2] = target: T2, hN2 11-12 (human Notch2 amino acids …); assay: as above
Experimental: as §1

[3] = target: T11, hN2 1-4 (human Notch2 amino acids 1-181 fused to hFc) (human, UniProt Q04721 26-181); assay: capture ELISA: hN2-hFc from HEK-293 supernatant on anti-human Fc plates, 59R1 Fab, HRP anti-human Fab [upper graph]
T11 construct: not shown: constant region of human IgG (hFc)
Experimental: as §1

[4] = target: T3, hN2 1-9 (human Notch2 amino acids 1-378 …); assay: as above
Experimental: as §1

[5] = target: T12, hN2 1-3 (human Notch2 amino acids 1-144 fused to hFc) (human, UniProt Q04721 26-144); assay: as above
T12 construct: Supernatant of transfected HEK-293 cells, captured with anti-human Fc; not shown: constant region of human IgG (hFc)
Experimental: as §1

[6] = target: T4, hN2 1-7 (human Notch2 amino acids 1-301 …); assay: as above
Experimental: as §1

[7] = target: T5, hN2 1-8 (human Notch2 amino acids 1-341 …); assay: as above
Experimental: as §1

[8] = target: T6, hN2 1-6 (human Notch2 amino acids 1-263 …); assay: as above
Experimental: as §1

[9] = target: T13, hN2 1-5 (human Notch2 amino acids 1-221 fused to hFc) (human, UniProt Q04721 26-221); assay: as above
T13 construct: not shown: constant region of human IgG (hFc)
Experimental: as §1

[10] = target: T14, human Notch1, full length, on transfected cells (human, UniProt P46531 19-2555); assay: FACS on HEK 293 cells transiently transfected with Notch1 Full Length and GFP
T14 construct: also called hNotch1
T14 sequence (P46531 19-2555 limits assumed): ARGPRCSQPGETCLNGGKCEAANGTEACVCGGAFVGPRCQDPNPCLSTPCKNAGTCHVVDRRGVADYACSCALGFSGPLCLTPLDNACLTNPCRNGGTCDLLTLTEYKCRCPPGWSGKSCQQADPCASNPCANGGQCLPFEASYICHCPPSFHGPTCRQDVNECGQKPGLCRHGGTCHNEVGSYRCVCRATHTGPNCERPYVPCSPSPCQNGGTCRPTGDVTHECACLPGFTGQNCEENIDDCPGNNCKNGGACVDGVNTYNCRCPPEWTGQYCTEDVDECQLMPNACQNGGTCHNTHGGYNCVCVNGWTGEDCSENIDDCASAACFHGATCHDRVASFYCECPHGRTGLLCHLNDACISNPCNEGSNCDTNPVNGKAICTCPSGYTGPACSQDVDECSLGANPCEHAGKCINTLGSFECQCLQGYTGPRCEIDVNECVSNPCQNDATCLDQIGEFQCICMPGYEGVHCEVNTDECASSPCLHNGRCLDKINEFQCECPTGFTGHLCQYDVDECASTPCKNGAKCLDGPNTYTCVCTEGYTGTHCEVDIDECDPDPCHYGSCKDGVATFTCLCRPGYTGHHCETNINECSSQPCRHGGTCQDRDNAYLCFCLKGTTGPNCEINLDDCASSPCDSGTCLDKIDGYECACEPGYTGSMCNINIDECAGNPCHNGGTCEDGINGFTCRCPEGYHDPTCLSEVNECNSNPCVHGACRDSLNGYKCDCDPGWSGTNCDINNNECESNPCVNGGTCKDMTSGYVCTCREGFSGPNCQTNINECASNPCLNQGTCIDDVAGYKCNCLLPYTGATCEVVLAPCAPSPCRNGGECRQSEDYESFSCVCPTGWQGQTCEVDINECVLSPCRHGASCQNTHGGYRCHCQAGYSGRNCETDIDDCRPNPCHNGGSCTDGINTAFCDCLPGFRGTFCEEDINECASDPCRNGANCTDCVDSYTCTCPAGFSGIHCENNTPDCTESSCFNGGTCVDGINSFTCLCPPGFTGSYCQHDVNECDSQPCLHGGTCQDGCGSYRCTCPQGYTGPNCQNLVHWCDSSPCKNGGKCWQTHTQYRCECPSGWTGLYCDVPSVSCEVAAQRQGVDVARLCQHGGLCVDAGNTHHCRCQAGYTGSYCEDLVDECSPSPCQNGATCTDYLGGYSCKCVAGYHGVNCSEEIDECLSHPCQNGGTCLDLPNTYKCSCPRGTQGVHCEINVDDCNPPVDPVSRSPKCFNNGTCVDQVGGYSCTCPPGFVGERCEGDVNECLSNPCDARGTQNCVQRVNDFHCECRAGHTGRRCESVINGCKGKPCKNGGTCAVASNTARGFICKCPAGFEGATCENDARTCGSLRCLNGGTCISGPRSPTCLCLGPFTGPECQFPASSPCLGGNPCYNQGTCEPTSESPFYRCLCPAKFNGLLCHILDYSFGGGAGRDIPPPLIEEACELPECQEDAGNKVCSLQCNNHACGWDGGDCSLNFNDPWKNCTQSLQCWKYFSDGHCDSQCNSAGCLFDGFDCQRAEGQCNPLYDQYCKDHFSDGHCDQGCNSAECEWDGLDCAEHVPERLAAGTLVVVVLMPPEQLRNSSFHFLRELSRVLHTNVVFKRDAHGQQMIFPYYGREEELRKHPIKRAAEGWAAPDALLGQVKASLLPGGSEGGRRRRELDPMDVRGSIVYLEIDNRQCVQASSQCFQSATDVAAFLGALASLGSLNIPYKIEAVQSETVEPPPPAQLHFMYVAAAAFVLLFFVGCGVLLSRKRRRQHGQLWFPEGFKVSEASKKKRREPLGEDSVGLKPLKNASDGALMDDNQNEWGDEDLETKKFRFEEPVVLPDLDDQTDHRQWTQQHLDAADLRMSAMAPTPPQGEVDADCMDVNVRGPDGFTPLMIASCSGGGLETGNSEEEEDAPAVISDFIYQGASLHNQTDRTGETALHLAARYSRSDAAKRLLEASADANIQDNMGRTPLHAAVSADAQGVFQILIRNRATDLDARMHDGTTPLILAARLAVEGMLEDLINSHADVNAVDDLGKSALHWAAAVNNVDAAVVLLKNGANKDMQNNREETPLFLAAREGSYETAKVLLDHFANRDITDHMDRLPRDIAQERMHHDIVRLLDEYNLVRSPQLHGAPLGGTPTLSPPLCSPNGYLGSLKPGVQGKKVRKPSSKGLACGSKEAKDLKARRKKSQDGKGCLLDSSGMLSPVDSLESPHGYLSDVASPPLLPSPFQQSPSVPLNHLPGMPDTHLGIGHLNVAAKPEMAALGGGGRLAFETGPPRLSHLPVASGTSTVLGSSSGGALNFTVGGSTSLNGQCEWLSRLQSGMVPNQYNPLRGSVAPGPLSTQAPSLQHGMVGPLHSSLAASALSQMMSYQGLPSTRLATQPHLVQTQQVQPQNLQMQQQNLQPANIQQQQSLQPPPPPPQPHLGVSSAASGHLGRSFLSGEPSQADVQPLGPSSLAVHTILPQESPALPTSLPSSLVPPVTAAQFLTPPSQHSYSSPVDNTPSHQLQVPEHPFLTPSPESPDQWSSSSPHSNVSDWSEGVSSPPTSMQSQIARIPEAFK
Experimental: FIG. 15. In vitro characterization of 59R5. […] PC3 tumor cells were transiently transfected with human or mouse Notch receptor (hN2, human Notch2; mN2, murine Notch2; hN3, human Notch3; mN3, murine Notch3) and GFP inducible reporter construct. Transfected cells were incubated with different concentrations of antibody 59R1 and 59R5 in the presence of passively immobilized DLL4 Fc. […] Cells were also co-transfected with a plasmid encoding green fluorescent protein (GFP) to mark those cells that received transfected plasmid. Cells were incubated with 59R1 or 59R5 and fluorescent secondary antibody and then examined by FACS.
The binding epitope of 59R5 was determined. As was described in Example 3 for analysis of antibody 59R1, several point mutants were created within full-length Notch1, converting residues within EGF10 to the corresponding amino acids in human Notch 2. Mutants in full-length Notch sequences were generated by QuikChange® mutagenesis (Stratagene) and verified by sequencing. […] Cells were also co-transfected with a plasmid encoding green fluorescent protein (GFP) to mark those cells that received transfected plasmid. Cells were incubated with 59R1 or 59R5 and fluorescent secondary antibody and then examined by FACS. 59R1 and 59R5 were detected by PE-conjugated goat anti-human Fc gamma specific antibody (Jackson Immunochemicals, #109-116-170).

[11] = target: T7, human Notch2 as used in the Biacore …; assay: Biacore SPR
[12] = target: T8, recombinant human Notch3 (EGF9-14); assay: Biacore SPR
[13] = target: T9, recombinant mouse Notch2 (EGF10-15); assay: Biacore SPR
[14] = target: T10, recombinant mouse Notch3 (EGF9-14); assay: Biacore SPR

binding result [1] | binding result [2] | binding result [3] | binding result [4] | binding result [5] | binding result [6] | binding result [7] | binding result [8] | binding result [9] | binding result [10] | Kd [11] | Kd [12] | Kd [13] | Kd [14] | Binder
no binding (tested: 10 ug/ml) | no binding (tested: 10 ug/ml) | no binding (tested: 10 ug/ml) | no binding (tested: 10 ug/ml) | no binding (tested: 10 ug/ml) | no binding (tested: 10 ug/ml) | no binding (tested: 10 ug/ml) | no binding (tested: 10 ug/ml) | no binding (tested: 10 ug/ml) |  |  |  |  |  | 59R1 Fab (Fab, V domains shown, also called Clone 1; 59R Fab antibody) VH: QVQLVESGGGLVQPGGSLRLSCAASGFTFSSSGMSWVRQAPGKGLEWVSVIASSGSNTYYADSVKGRFTISRDNSKNTLYLQMNSLRAEDTAVYYCARGIFFAIWGQGTLVTVSS VL: not shown
 |  |  |  |  |  |  |  |  | no binding | 0.05 nM | 0.22 nM | 0.26 nM | 0.29 nM | 59R5 antibody (antibody, human IgG2, kappa, V domains shown, Human IgG2; also called anti-Notch2/3 antibody 59R5; 59R5 IgG2) VH: EVQLVESGGGLVQPGGSLRLSCAASGFTFSSSGMSWVRQAPGKGLEWVSVIASSGSNTYYADSVKGRFTISRDNSKNTLYLQMNSLRAEDTAVYYCARSIFYTTWGQGTLVTVSS VL: not shown
